Test system: MS2 coat protein
Test: apparent KD of MS2 coat protein; designed switch direction (-1 OFF switch, 1 ON switch): -1; higher = weaker reporter binding
Summary of the method: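 An oligonucleotide input, 200 uM small-molecule ligand, or no input was present during titration of SNAP-549-labelled MS2 coat protein, which was doubled from 0.7 or 1.5 nM to 3 µM. Designed RNA switches had been transcribed on Illumina chips by stalled E. coli RNA polymerase. Apparent KD per design is the median over clusters of curves fitted to normalised cluster fluorescence.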

[1] = input ligand: microRNA oligo, concentration not stated
[2] = Eterna round: R95, input ligand: microRNA oligo, concentration not stated
[3] = Eterna round: R95, input ligand: FMN 200 uM
[4] = Eterna round: R95, input ligand: none

| Sequence | apparent KD of MS2 coat protein (input ligand: FMN 200 uM) [nM] | apparent KD of MS2 coat protein (input ligand: none) [nM] | apparent KD of MS2 coat protein [1] [nM] | further results |
| --- | --- | --- | --- | --- |
| UUCGUUUUAGGAUAUACAGGGUUGGUCGACAACUCACUGUCACAUGAGGAUCACCCAUGUAGAAGGGAGAGAAG [Eternabot (L1) Solution 49] (Eterna round: R97, puzzle: Exclusion 2) | 244 | 198 |  |  |
| UUCUUUAUACGAGGAUAUCAUACAUGAGGAUCACCCAUGUGGCUGGGUCUGUUUUUAUAUAAUAUUGAGAAGGCGUUUUGCUAU [JR_ExcNG2_Sub072] (Eterna round: R96, puzzle: Exclusion NG 2) | 223 | 80.9 | 70.5 |  |
| UUGAAACAUACCUCCAUAAACAUGAGGAUCACCCAUGUAAGUGAGGAUAUAGAUUGAUUAGUAUACUAGAAGGCACUUAGAUAU [JR_ExcNG3_Sub043] (Eterna round: R96, puzzle: Exclusion NG 3) | 10.4 | 10.5 | 10.8 |  |
| UUGAACUUAGGAUAUUGGUUCAGCUACAUGAGGAUCACCCAUGUGGUACCUAGCUGAGGUCAAGAAGGGAGUGUUG [EX5 B.12] (Eterna round: R97, puzzle: Exclusion 5) | 25.6 | 20.6 |  |  |
| UUGAAGUCAUCAGGAUAUAGUAUUAAAGACAUUUAUAUUUUCAAACAUGAGGAUCACCCAUGUCGCUAGAAGGGAUUAUAGAUU [JR_ExcNG2_Sub080] (Eterna round: R96, puzzle: Exclusion NG 2) |  |  | 36.6 |  |
| UUGAGACAUGAGGAUCACCCAUGUAAGGAUAUAGUCGUCUGGUGGUCUCGGGUGGUGGCUAGAAGGUGCGUGCG [-15.7, 14.3 kcal, A 20%] (Eterna round: R97, puzzle: Exclusion 1) | 241 | 239 |  |  |
| UUGAUGUAAGGAUAUCGUGCAAGUUUCAAAAGAGGCUUGUGCGAGAAGGUACAUGAGGAUCACCCAUGUAGGUU [Omei Ex4 B8] (Eterna round: R97, puzzle: Exclusion 4) | 113 | 31.7 |  |  |
| UUGAUGUGAGGAUAUAUUUUGUGUUUUCUUUAUGUUUUAUAACUUGAGGAUCACCCAAGUAGAAGGCGCUACGU [JR_Ex2_Sub065] (Eterna round: R97, puzzle: Exclusion 2) | 119 | 60.6 |  |  |
| UUGAUGUGAGGAUAUGUGAUCUGCCUUCUAUAUAGAUGAUUACAGAAGGCACAUGAGGAUCACCCAUGUAGAUC [Ex4 - 3 - 24] (puzzle: Exclusion 4) |  |  |  | apparent KD of MS2 coat protein [2]: 49.2 nM |
| UUGCGAAGAGGAUAUUUUGUCAUCAACAUGAGGAUCACCCAUGUCUUCCUUUAUGCUAUAGAAGAAGGCUUCCAGU [Eternabot (L2) Solution 63] (Eterna round: R97, puzzle: Exclusion 5) | 59.9 | 37.1 |  |  |
| UUGGAGAUAGGAUAUACGAGGAGAGUAGAGGGAAGGUGAUGACAUGAGGAUCACCCAUGUAGAAGGAUCAGGAG [JR_Exclu2_Sub068] (puzzle: Exclusion 2) |  |  |  | apparent KD of MS2 coat protein [2]: 112 nM |
| UUGGAUAUCUAUGGGAGUAACAUGAGGAUCACCCAUGUAUGUCUUGUUUUUUGUUCGUCAUAGGCCAUUUGAUUGGA [JR_SV3TOV1_Sub025] (puzzle: Sensor v3, turn-off variant 1) |  |  |  | apparent KD of MS2 coat protein [3]: 78.8 nM; apparent KD of MS2 coat protein [2]: 140 nM; apparent KD of MS2 coat protein [4]: 94.6 nM |
| UUGGUGUCAGGAUAUGCUUAAUGUGUUUUAUUAUAAUAUAUACAUGAGGAUCACCCAUGUAGAAGGGACAUUGU [LRO-Excl2-09-Fireball XL5] (Eterna round: R97, puzzle: Exclusion 2) | 48 | 48.5 |  |  |
| UUGGUUGGUGUAGGAUAUGUAUGAGGAUCACCCAUUAAUAAAUUUUAACCACGAGGAUCACCCGUGUAGAAGGACAUUGGUUAU [pwkr exNG2 2xF5 1xFMN.22] (Eterna round: R96, puzzle: Exclusion NG 2) | 52 | 57.4 | 42.1 |  |
| UUGGUUGUGGUAGGAUAUCCGUUGGAAACCUUCGGAGAAGGACCACAGUCACUGGGUCUUUGUCUGGUGGACGGUGAAAACCGU [pwkr exNG1 F6.22] (Eterna round: R96, puzzle: Exclusion NG 1) | 138 | 730 | 498 |  |
| UUGGUUGUGGUAGGAUAUCCGUUGGAAACUGUUGGAGAAGGACCACAGUCACUGGGUCUUUGUUUGGUGGAGUGGAAGAACCAU [pwkr exNG1 F6.18] (Eterna round: R96, puzzle: Exclusion NG 1) | 166 | 324 | 532 |  |
| UUGUAACAUGAGGAUCACCCAUGUGAGGAUAUGGCCCGCCCGGCGUGAGCUGGUUUUGUCAGAAGGCGCAUAGG [salish99_ex1_r4_022] (Eterna round: R97, puzzle: Exclusion 1) | 158 | 49.9 |  |  |

| Sequence | apparent KD of MS2 coat protein (input ligand: FMN 200 uM) [nM] | apparent KD of MS2 coat protein (input ligand: none) [nM] | apparent KD of MS2 coat protein [1] [nM] | further results |
| --- | --- | --- | --- | --- |
| UUGUAACAUGAGGAUCACCCAUGUGAGGAUAUGGUUAAGUAAUGUAAUGUAAAGUAAUCCAGAAGGCACAUGUU [1st #24] (Eterna round: R97, puzzle: Exclusion 1) | 488 | 328 |  |  |
| UUGUACAUAGGAUAUAGUUGUUUCUACAUGAGGAUCACCCAUGUUAUUCCUCUCUCCCUUCUAGAAGGAUGUUUUU [JR_E5_Sub006] (puzzle: Exclusion 5) |  |  |  | apparent KD of MS2 coat protein [2]: 43.6 nM |
| UUGUACCGGUGAGGAUAUUUUUAAUAGAGCUUUAUGAUAUACAUGAGGAUCACCCAUGUUACGUUGAAGAAGGCAUCGGAUUAU [JL JR Sub091 mod 5] (Eterna round: R96, puzzle: Exclusion NG 2) | 19.3 | 19.8 | 15.5 |  |
| UUGUCGCAUGUAGGAUAUGUAUGUUAUUAUCAUACAGAAGGACAUGAGGAUCACCCAUGUGUAUUAUUAUUAUAUGUUACAUAU [MOD of Hoglahoo's a different Title] (Eterna round: R96, puzzle: Exclusion NG 1) |  |  | 14 |  |
| UUGUCGGCAGGAUAUACAUGAGGAUCACCCAUGUAAAUUUUUCGUUUAACUUGAAUGUGUAGAAGGGCCAUGUU [Ex3 #71] (Eterna round: R97, puzzle: Exclusion 3) | 35.3 | 24.5 |  |  |
| UUGUGCACGCUGCGAUCCUACAUGAGGAUCACCCAUGUGGUCUGGUGGCGUGGGUCACCGGACUUGGCUCGUCUUGU [salish99_S_TOV1_R5_080] (Eterna round: R97, puzzle: Sensor, turn-off variant 1) | 69.6 | 80.8 |  |  |
| UUGUUAUAUGAAGGAUAUACUUAACAUGAGGAUCACCCAUGUGGUGUUGUGAGUGAGUGAGUUUAGUAGAAGGUCAAUUCUUUU [JMF's solution 94] (Eterna round: R96, puzzle: Exclusion NG 2) | 735 | 421 | 440 |  |
| UUGUUAUAUGUAGGAUAUGCAUAUUAUUAUUAUGCAGAAGGACAUGAGGAUCACCCAUGUAUAUUAUUAUUAUAUGUUAUAUAU [Title] (Eterna round: R96, puzzle: Exclusion NG 1) |  |  | 19.5 |  |
| UUGUUAUAUGUAGGAUAUGCAUAUUGUUGUUAUGCAGAAGGACAUGAGGAUCACCCAUGUAUAUUAUUGUUAUAUAUUGUAUAU [Title] (Eterna round: R96, puzzle: Exclusion NG 1) |  |  | 20.1 |  |
| UUGUUAUAUGUAGGAUAUGCGUAUUAUUGUUAUGCAGAAGGACAUGAGGAUCACCCAUGUAUAUUAUUGUUAUAUAUUAUAUAU [Title] (Eterna round: R96, puzzle: Exclusion NG 1) |  |  | 20.3 |  |
| UUGUUCCGUGUAGGAUAUUGGUCUCCCUCGGGCCGAGAAGGACAUGAGGAUCACCCAUGUAUGUUAUUAUCGCGCGUGGCGCAU [Design 91] (Eterna round: R96, puzzle: Exclusion NG 1) | 112 | 37.9 | 21.6 |  |
| UUGUUGUAUGUAGGAUAUGCGUGUUAUUAUUAUGCAGAAGGACAUGAGGAUCACCCAUGUAUAUUAUUAUUAUAUGUUAUAUAU [Title] (Eterna round: R96, puzzle: Exclusion NG 1) |  |  | 17.6 |  |
| UUGUUGUGUGUAGGAUAUGCGUAUUAUUAUUAUGCAGAAGGACAUGAGGAUCACCCAUGUGUAUUAUUAUUAUAUAUUAUAUAU [Title] (Eterna round: R96, puzzle: Exclusion NG 1) | 43.3 | 25 | 21.8 |  |
| UUGUUGUGUGUAGGAUAUGCGUGUUAUUAUUAUGCAGAAGGACAUGAGGAUCACCCAUGUGUAUUAUUAUUAUAUAUUAUAUAU [Title] (Eterna round: R96, puzzle: Exclusion NG 1) | 23.8 | 23.5 | 17.1 |  |
| UUUAAAACAUAGGAUAUCGAAAAUAUCAUUUAACGAGAAGGAUGAACAUGAGGAUCACCCAUGUGGUAUCAUGG [Mat - Exclusion 6 - JL Mod - D16] (puzzle: Exclusion 6) |  |  |  | apparent KD of MS2 coat protein [3]: 320 nM; apparent KD of MS2 coat protein [2]: 580 nM; apparent KD of MS2 coat protein [4]: 313 nM |
| UUUAACGAUGAGGAUAUAUGAUAUCAAAGCAUCAUAGAAGGCAUCACAUGAGGAUCACCCAUGUGAUCUUCUUG [Mat - Exclusion 6 - JL Mod - D28] (Eterna round: R97, puzzle: Exclusion 6) | 94 | 29.4 |  |  |
| UUUAAGGAAGGAUAUACAAUAUAAAUAAUAUCCUCAUUAUUACAUGAGGAUCACCCAUGUAGAAGGUCCAAUUU [Mat - Exclusion 2 - Mod of Hog - D89] (puzzle: Exclusion 2) |  |  |  | apparent KD of MS2 coat protein [2]: 137 nM |
